The source of these data is paper PMC10912661 (Scientific Reports, 2024).

Holding throughout (settings): both partners purified
For assay [1], the target named is T1, human hemoglobin (bought powder, gel-filtered, for in vitro assays) (human, UniProt P69905 1-142; P68871 1-147). Description: SPR. For orientation: SPR reads the build-up and loss of mass on a sensor chip optically.
Assay [2] concerns the target T1, human hemoglobin (bought powder, …). Kind of assay: SPR. This is another data set of the same source.
The target of assay [3] is T2, β-chain of human hemoglobin (in the Hb tetramer of the crystal) (human, UniProt P68871 1-147).
T2 construct: also called β-chain of Hb; chain ß; source: purified from human blood of a single healthy donor, as part of Hb
T2 sequence (P68871 whole entry): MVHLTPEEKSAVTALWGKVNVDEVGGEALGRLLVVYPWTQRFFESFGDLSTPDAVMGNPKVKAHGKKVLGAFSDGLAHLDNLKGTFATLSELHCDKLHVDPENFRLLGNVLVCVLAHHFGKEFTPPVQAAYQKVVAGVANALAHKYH
Kind of assay: crystal structure.

The target in assay [4] is human hemoglobin purified from donor blood (carboxyhemoglobin form, for crystallography) (human, UniProt P69905 1-142; P68871 1-147). Kind of assay: crystal structure.
Chain of human hemoglobin purified from donor blood (carboxyhemoglobin form, for crystallography) (P69905 whole entry, chain 1 of 2): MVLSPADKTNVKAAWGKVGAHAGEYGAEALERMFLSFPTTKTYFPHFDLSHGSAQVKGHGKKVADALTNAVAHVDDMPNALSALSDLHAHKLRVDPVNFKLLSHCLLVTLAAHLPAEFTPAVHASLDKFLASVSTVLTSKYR
Chain of human hemoglobin purified from donor blood (carboxyhemoglobin form, for crystallography) (P68871 whole entry, chain 2 of 2): as the sequence (P68871 whole entry) above

T1 sequence (P69905 whole entry, chain 1 of 2): as the sequence (P69905 whole entry, chain 1 of 2) above
T1 sequence (P68871 whole entry, chain 2 of 2): as the sequence (P68871 whole entry) above

B1: hemoglobin-interacting domain 2 (HID2) of Shr, residues 169-294, wild type (domain or fragment)
chain: SGKNTANLSLITKLSQEDGAILFPEIDRYSDNKQIKALTQQITKVTVNGTVYKDLISDSVKDTNGWVSNMTGLHLGTKAFKDGENTIVISSKGFEDVTITVTKKDGQIHFVSAKQKQHVTAEDRQS
notes: also called WT; WT HID2; source: E. coli BL21(DE3), pET28b, purified (Ni-NTA, TEV cleavage, second Ni column, SEC Superdex-75)
As for B1, binding in assay [1] was put at a Kd of 25 µM. Moreover, in assay [2], the affinity, expressed as Kd, was 22 ± 0.12 µM; the koff (in general, a measure of how fast the partners let go of each other) amounted to 0.65 ± 0.025 s⁻¹; the kon – broadly, the rate constant with which the complex forms – stood at 30000 ± 160 M⁻¹ s⁻¹. The binding result in assay [3] was “binds”. Besides, the stoichiometry N (in general, a count of units in the complex or per binding partner) in assay [4] came to 3 HID2 per Hb tetramer.
